Tests used:
Test in all cases: holdup assay
Design in all cases: key: below the threshold = too weak to quantify, mostly under pKd 3.1 to 4
[1] = target: ARHGEF12, Q9NZN5-2
[2] = target: NHERF4_1, Q86UT5-2
[3] = target: MAGI2_5, Q86UL8
[4] = target: T1, APBA3_1, O96018
T1 sequence (O96018 389-490, limits assumed, looked up): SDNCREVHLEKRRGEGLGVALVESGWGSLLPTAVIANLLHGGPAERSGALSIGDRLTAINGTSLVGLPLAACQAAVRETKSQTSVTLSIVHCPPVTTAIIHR

[5] = target: MAST2, Q6P0Q8
[6] = target: IL16_4, Q14005
[7] = target: T2, GRIP1_4, Q9Y3R0
T2 sequence (Q9Y3R0 467-571, limits assumed, looked up): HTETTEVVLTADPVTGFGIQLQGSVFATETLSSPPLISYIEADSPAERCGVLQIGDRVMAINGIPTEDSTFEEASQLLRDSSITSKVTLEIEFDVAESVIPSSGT

[8] = target: T3, LNX2_3, Q8N448
T3 sequence (Q8N448 463-564, limits assumed, looked up): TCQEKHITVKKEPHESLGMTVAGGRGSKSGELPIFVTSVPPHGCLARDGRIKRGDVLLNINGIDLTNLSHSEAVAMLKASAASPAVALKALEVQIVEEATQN

[9] = target: GRID2IP_1, A4D2P6
[10] = target: Inadl_3, Q8NI35
[11] = target: Inadl_8, Q8NI35
[12] = target: Inadl_1, Q8NI35
[13] = target: DLG4_1, P78352
[14] = target: T4, DVL3, Q92997
T4 sequence (Q92997 244-331, limits assumed, looked up): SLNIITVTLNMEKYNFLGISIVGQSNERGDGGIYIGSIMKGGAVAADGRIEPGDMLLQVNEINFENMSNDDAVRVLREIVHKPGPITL

[15] = target: LNX1_3, Q8TBB1
[16] = target: T5, HTRA4, P83105
T5 sequence (P83105 378-476, limits assumed, looked up): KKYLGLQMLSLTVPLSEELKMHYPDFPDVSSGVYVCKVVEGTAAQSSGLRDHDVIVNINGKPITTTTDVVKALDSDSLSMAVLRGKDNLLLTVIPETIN

[17] = target: Inadl_9, Q8NI35
[18] = target: T6, FRMPD1, Q5SYB0
T6 sequence (Q5SYB0 52-145, limits assumed, looked up): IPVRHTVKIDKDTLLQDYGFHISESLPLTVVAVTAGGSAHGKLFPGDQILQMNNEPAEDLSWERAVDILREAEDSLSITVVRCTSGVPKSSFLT

[19] = target: T7, PDZD2_2, O15018
T7 sequence (O15018 329-429, limits assumed, looked up): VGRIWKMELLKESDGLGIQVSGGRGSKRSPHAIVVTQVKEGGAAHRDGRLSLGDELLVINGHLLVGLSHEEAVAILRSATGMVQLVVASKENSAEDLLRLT

[20] = target: T8, PDZD7_3, Q9H5P4
T8 sequence (Q9H5P4 857-944, limits assumed, looked up): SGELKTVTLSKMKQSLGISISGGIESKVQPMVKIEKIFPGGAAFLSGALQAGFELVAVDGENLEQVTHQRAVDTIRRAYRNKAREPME

[21] = target: T9, LIN7C, Q9NUP9
T9 sequence (Q9NUP9 88-185, limits assumed, looked up): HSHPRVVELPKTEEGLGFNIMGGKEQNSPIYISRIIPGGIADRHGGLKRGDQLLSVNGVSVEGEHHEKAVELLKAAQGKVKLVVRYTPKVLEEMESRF

[22] = target: NHERF4_4, Q86UT5
[23] = target: FRMPD2_1, Q68DX3
[24] = target: Inadl_6, Q8NI35
[25] = target: T10, MPP2, Q14168
T10 sequence (Q14168 180-250, limits assumed, looked up): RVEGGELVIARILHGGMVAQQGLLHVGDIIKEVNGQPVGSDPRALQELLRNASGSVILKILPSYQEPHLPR

[26] = target: T11, LIN7B, Q9HAP6
T11 sequence (Q9HAP6 88-185, limits assumed, looked up): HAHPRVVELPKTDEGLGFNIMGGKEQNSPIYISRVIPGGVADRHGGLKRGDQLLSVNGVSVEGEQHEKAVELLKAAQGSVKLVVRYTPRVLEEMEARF

[27] = plain residues with an end cap or a label only (N-terminal biotin on a linker: ado-ado)
[28] = modified: phospho on T at position -2 from the C-terminal residue

Measured: pKd

NHERF4_1, Q86UT5-2, sequence (Q86UT5 other isoform, or with tags, fused parts or gaps): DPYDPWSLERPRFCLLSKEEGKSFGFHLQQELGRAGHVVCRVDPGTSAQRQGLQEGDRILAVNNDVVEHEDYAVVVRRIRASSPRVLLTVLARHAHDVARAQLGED
DLG4_1, P78352, sequence (P78352 62-152): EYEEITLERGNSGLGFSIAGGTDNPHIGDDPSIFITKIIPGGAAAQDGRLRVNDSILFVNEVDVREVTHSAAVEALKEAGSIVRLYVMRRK
Inadl_8, Q8NI35, sequence (Q8NI35 1425-1530): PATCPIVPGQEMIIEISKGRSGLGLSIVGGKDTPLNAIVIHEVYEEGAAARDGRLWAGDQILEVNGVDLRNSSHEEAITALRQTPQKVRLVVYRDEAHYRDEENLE
Inadl_3, Q8NI35, sequence (Q8NI35 359-469): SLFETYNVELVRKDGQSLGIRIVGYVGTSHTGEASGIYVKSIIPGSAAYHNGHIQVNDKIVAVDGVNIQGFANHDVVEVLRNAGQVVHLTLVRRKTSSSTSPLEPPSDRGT
LNX1_3, Q8TBB1, sequence (Q8TBB1 500-596): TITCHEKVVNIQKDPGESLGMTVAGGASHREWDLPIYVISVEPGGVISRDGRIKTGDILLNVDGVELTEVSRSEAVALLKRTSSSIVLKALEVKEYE
Inadl_1, Q8NI35, sequence (Q8NI35 113-229): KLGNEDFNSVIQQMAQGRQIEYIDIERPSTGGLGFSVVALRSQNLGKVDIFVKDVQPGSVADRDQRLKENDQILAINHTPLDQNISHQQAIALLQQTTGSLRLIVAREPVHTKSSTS
Inadl_9, Q8NI35, sequence (Q8NI35 1530-1615): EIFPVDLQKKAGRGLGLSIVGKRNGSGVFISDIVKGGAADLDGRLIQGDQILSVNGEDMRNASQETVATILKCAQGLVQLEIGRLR
IL16_4, Q14005, sequence (Q14005 1229-1329): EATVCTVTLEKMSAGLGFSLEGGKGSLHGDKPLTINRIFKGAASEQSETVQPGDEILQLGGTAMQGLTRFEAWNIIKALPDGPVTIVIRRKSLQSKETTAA
Inadl_6, Q8NI35, sequence (Q8NI35 1058-1167): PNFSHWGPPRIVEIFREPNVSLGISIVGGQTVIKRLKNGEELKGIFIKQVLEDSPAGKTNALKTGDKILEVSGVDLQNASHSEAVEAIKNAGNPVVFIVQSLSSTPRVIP
MAST2, Q6P0Q8, sequence (Q6P0Q8 1099-1202): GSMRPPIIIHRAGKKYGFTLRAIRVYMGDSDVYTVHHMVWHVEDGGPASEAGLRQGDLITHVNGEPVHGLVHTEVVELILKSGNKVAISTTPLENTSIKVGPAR
MAGI2_5, Q86UL8, sequence (Q86UL8 915-1017): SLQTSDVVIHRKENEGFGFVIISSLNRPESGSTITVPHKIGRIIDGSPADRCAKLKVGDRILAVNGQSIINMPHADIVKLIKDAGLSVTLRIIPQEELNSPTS
FRMPD2_1, Q68DX3, sequence (Q68DX3 770-861): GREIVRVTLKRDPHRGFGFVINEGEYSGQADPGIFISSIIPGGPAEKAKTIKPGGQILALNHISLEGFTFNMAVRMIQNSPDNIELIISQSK
GRID2IP_1, A4D2P6, sequence (A4D2P6 1-87): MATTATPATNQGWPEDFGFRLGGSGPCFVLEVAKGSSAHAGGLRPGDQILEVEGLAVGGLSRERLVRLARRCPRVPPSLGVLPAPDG
ARHGEF12, Q9NZN5-2, sequence (Q9NZN5 other isoform, or with tags, fused parts or gaps): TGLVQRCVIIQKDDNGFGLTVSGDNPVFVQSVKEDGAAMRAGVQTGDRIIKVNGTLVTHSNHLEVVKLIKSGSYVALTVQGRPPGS
NHERF4_4, Q86UT5, sequence (Q86UT5 464-550): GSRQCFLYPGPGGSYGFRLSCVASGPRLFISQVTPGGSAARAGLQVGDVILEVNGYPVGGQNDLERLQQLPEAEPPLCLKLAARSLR

YNNCLEILRV [DCAF7, P61962]
3.55: [14]; [27]
4.68: [16]; [27]
4.53: [5]; [27]
3.94: [15]; [27]
3.57: [17]; [27]
below the threshold: [1]; [27] | [2]; [27] | [3]; [27] | [4]; [27] | [6]; [27] | [7]; [27] | [8]; [27] | [9]; [27] | [10]; [27] | [11]; [27] | [12]; [27] | [13]; [27] | [18]; [27] | [19]; [27] | [20]; [27] | [21]; [27] | [22]; [27] | [23]; [27] | [24]; [27] | [25]; [27] | [26]; [27]

RRLPGKETMA [GRIK2, Q13002]
3.64: [26]; [27]
below the threshold: [1]; [27] | [2]; [27] | [3]; [27] | [4]; [27] | [5]; [27] | [6]; [27] | [7]; [27] | [8]; [27] | [9]; [27] | [10]; [27] | [11]; [27] | [12]; [27] | [13]; [27] | [14]; [27] | [15]; [27] | [16]; [27] | [17]; [27] | [18]; [27] | [19]; [27] | [20]; [27] | [21]; [27] | [22]; [27] | [23]; [27] | [24]; [27] | [25]; [27]

SKPTRRETEV [HPV35-E6_-2P, P27228]
3.6: [2]; [28]
3.61: [20]; [28]
4.05: [21]; [28]
3.86: [22]; [28]
below the threshold: [1]; [28] | [3]; [28] | [4]; [28] | [5]; [28] | [6]; [28] | [7]; [28] | [8]; [28] | [9]; [28] | [10]; [28] | [11]; [28] | [12]; [28] | [13]; [28] | [14]; [28] | [15]; [28] | [16]; [28] | [17]; [28] | [18]; [28] | [19]; [28] | [23]; [28] | [24]; [28] | [25]; [28] | [26]; [28]

RRRESYSTTV [EVI5, O60447]
4.06: [11]; [27]
below the threshold: [2]; [27] | [4]; [27] | [6]; [27] | [7]; [27] | [8]; [27] | [9]; [27] | [12]; [27] | [14]; [27] | [15]; [27] | [18]; [27] | [22]; [27] | [24]; [27] | [25]; [27] | [26]; [27]
4.08: [16]; [27]
3.99: [10]; [27]
5.79: [13]; [27]
4.7: [19]; [27]
4.54: [3]; [27]
4.61: [20]; [27]
4.74: [1]; [27]
3.74: [23]; [27]
3.88: [17]; [27]
4.31: [21]; [27]
5.66: [5]; [27]

LRSPRTPSEV [OR10G3, Q8NGC4]
3.61: [5]; [27]
4.18: [11]; [27]
3.53: [6]; [27]
3.49: [13]; [27]
3.63: [2]; [27]
4: [16]; [27]
4.01: [17]; [27]
3.95: [19]; [27]
3.85: [26]; [27]
3.88: [21]; [27]
below the threshold: [3]; [27] | [4]; [27] | [7]; [27] | [8]; [27] | [9]; [27] | [10]; [27] | [12]; [27] | [14]; [27] | [15]; [27] | [18]; [27] | [20]; [27] | [22]; [27] | [23]; [27] | [24]; [27] | [25]; [27]
3.65: [1]; [27]

— publication PMC9482650, “Quantitative fragmentomics allow affinity mapping of interactomes” (Nature Communications, 2022)
